Assay results reported in publication PMC11245101.
Where “and” joins values, the source holds several entries; their conditions need not be identical. Equal values may be shown once.

Tests used:
Test in all cases: AUC
[1] = target: TDP-43 CTD S→E S305C, disulfide cross-linked dimer (human)
[2] = target: TDP-43 CTD S→E S317C, disulfide cross-linked dimer (human)
[3] = target: TDP-43 CTD S→E S273C, disulfide cross-linked dimer (human)

Question: What does the source list for “TDP-43 CTD S→E S305C, disulfide cross-linked dimer (domain or fragment)”?
Answer: Kd dimer-tetramer [1]: 58 µM; Kd tetramer-octamer [1]: 4.7 µM; stoichiometry N [1]: 4 and 8

Question: Which Kd [2] does the source give for “TDP-43 CTD S→E S317C, disulfide cross-linked dimer (domain or fragment)” here?
Answer: Its Kd is 46 µM.

Question: And the stoichiometry N [2]?
Answer: Its stoichiometry N is 4.

Question: For “TDP-43 CTD S→E S273C, disulfide cross-linked dimer (domain or fragment)”, which fraction of tetramer [3] is on record?
Answer: The fraction of tetramer was less than 1%.
